The DeepSol protein solubility set

test: soluble on expression in E. coli; label from the status in PepcDB or PDB records

Sequence | soluble on expression in E. coli
MSLKTGRALRIAVLVSGRLNLWFSSSIIEGLNEVFHDEGYDISIYQMSSTEERSEFFDMLPVRRNVDAVIVISFDIASNEIRQLRSVDVPIIGINSSLPEERGFNAAVRIDDKQGSELAARHLMMLGHRDIVYIRSDREVTLHFSVQGRYESFMACCQANGVEPRVLVTDAGRNRISKVVTQLLSLDHMPTAIACQEDGIAVPLLFQLERNGFTVPNDISIIGYDDSVYARDLGLTTIRQTPVEMAREAARMTLALIEKQPLDEPFKTFPAQLIVRSTTARLHSEGHHHHHH | soluble
MSLKTLATIGDNCVDIYPQLNKAFSGGNAVNVAVYCTRYGIQPGCITWVGDDDYGTKLKQDLARMGVDISHVHTKHGVTAQTQVELHDNDRVFGDYTEGVMADFALSEEDYAWLAQYDIVHAAIWGHAEDAFPQLHAAGKLTAFDFSDKWDSPLWQTLVPHLDFAFASAPQEDEALRLKMKAIVARGAGTVIVTLGENGSIAWDGAQFWRQAPEPVTVIDTMGAGDSFIAGFLCGWSAGMTLPQAMAQGTACAAKTIQYHGAEGHHHHHH | soluble
MSLKTLFDKTNLGTINMKNRFLRGALWTALADEKGHMTNELSDVYEELARGGVGTIVTGYAFVTENEQPNPRMMGIYDDSFIPEYKEFTDKIHRLGSNIIMQIVYGGFMTEFNVGERVIWGPSTTKNEVTGTLSREMTKEDIKYLVNAYAEAALRVKKSGFDGVEIHGGHGYLVSQFLSPYYNKRTDEYGGSIENRGRFVFEIFKAIREKVGEKFPILIKLNSSDYVKEGGLTIEDSLYVAERLAELGIDAIEVTGGNESIEEVMKNNLGPSRTKVAISKDRESYFKEYAIKLAERINKPVILSGGNRHFDVMEELLNDTNIEYFSLSRPLTAEPDLINKWYSGDLKKPKCKSCNQCYKTYGKRCIFNIKEGHHHHHH | soluble
MSLKTTLPISLDWSTEEVIDVVHFFQAIEQAYDQGIAREDLLGKYRRFKEIVPSKSEEKQLFRAYEQENDVSCYQTIKKAREEMEEHIQMEGHHHHHH | soluble
MSLKTVAVIGAMEQEIELLREMMENVKAVSFGRFSAYEGELAGKRMVLALSGIGKVNAAVATAWIIREFAADCVINTGSAGGLGKGLKVGDVVIGTETAHHDVDVTAFGYAWGQVPQLPARFASDGILIEAAKRAARTFEGAAVEQGLIVSGDRFVHSSEGVAEIRKHFPEVKAVEMEAAAIAQTCHQLETPFVIIRAVSDSADEKADISFDEFLKTAAANSAKMVAEIVKSL | soluble
MSLKVFQFKDWAVACDNIRHCEANGTQAGDGDNPVSLLLSRDAGPGSRLSAQLDVDDPDGDKVGKLTLKVGRIKWTGIDAEQAFSDAQTTQLLAAMLDADEVALADGKREWTLSLAGLKAALLKMDDVQGRVGTVGALVKKGGKPESAAPAAQPAPLLVPLAPPAARPGDQKLLPAILKQLRAVDKACWDELPDAEHPDVQLYRLSASQVLVLRECGRGAYQGSYKAWTSGDAPPFHPREVPLRGSDGKETFLMNASFDKGELSSYAKGRGIGDCGSGASWAWTGKDFKLMSAQEAPQCRGIAGGVSLRTWVTRQKEGHHHHHH | soluble
MSLKVGVALSGGVDSAVALYLLLKEGHEVKAFHMKTKEDEFFIKKEIKKKVCCSPSDTADAMRIAHFLGVEIEIVDVKEIFREKVIEPFKRDLLKGLTPNPCAHCNRFVKFGYLMDYVLNQGFDAFASGHYARIEFSEKYGRKVIKKGVDLKKDQSYFLARIEPWRIERLIFPNGIYTKEEIRKIAEEAGIHVAKKQESQDVCFIPDGSIENFLKDEGITLKDGDIITPEGEVVGRHFGYPLYTIGQRKGFKIEKFGRRYYVRGKIPEKNVVVVSDLEDVFFSGLIAEDPVWHVEVPEEFRCVCRVRKKSEEAPAVVKVKDNEVEVSFEKKVFAVTPGQIAAFYDGDTLLGGAIIKEGIREGHHHHHH | soluble
MSLKVVSVDTLCCDAGWRNYHFVKLTTDEGIVGWSEFDEGFGSPGVTAVIEQLGKRLVGASVMEHERFFAEAYCLTRPATGGVVSEGIGAIENALLDAKAKTLNVPCYELLGGKLRDRVPVYWSHCPTWRINHPKFFGPPVTDLDGVKRTAEEARERQFRAIKTNIFIHDDGPLHAWRPGFAVPFQPALNVDRKVLRNLRAHLEALRDGAGPDVEILLDLNFNAKPEGYLKILRELADFDLFWVEIDSYSPQGLAYVRNHSPHPISSCETLFGIREFKPFFDANAVDVAIVDTIWNGVWQSMKIAAFADAHDINVAPHNFYGHLCTMINANFAAAVPNLRIMETDIDRLAWEDELFTHAPEYQNGELIIPDRPGWGTDPVEEAILAHPPKVMGGLLQYKRSEGHHHHHH | soluble
MSLKWIDSHIHVDQYKDEEKSKLLKDVEHSKEIKGLIAVSMNYQSSKETVSLAKRYPFVHPAIGFHPEQPIHKEECEKIYKLIEEHVEDIVAIGEVGLPYYLRKEDKRIAVNSYISVLQRFVELASKYDLPIILHAVYEDADIVCDLLEKYKVSRAHFHWFKGSETTMKRMMRNGYYISITPDVLHKEKIRKIVSYYPLEYMMVETDGPWEFQDDVMTHPGMIREVLKEISVIKNMSVDKVMKTIYENTIQFYPTLTGNKTPTSKFDEGHHHHHH | not soluble
MSLKYDLKYLSVPLPEEIQRVKEFGDFASADIAIDFWLTKELPQALKERLIIEKDVIKMMRMNEYPHSFAKADQMMRDTFQDYQTEELIRLKETGLVDWVYIDGEPYFQLRFLANLIKTNAAYVARLREAESNQLEILRKKELKENIEQMQKNGGRKVRTTIKATIQVKKEFERPGERVRVHLPLPKACQQQSEIEILATSPEATYIAAEDAPQRTLCFETILKENQTFTVEYCYVNRMVYQQLEENNVDKMQPSFDLEEQLPHIRFTPYLRNLADEIVGDESNPLKKARLIYDFVTTKIHYSFMREYFTISNISEYAATNLKGDCGVQAILFITLCRIAGIPAKWQSGLYVSTHYTGCHDWAQFYIKPYGWLFADLSFGGGAYRDGDRQRWNHYFGNLDVFRMVANSEIQADFQPAKMQLRADPIDNQRGEFEYENEGLPYACLIVSQERLSMEELPFDEGGSHHHHHH | soluble
MSLKYFEFTFHTSPCTETVNDVLAAVLGEAGFESFVESEGGLTAYIQQALCDENTIKNAITEFPLPDTEITYTYVEAEDKDWNEEWEKNFFQPIVIDNRCVIHSTFHKDVPQATYDIVINPQMAFGTGHHETTSLIIGELLDNELKDKSLLDMGCGTSILAILARMRGARPCIAIDIDEWCVRNSIENIELNHVDDIAVSQGDASSLVGKGPFDIIIANINRNILLNDMKQYVACMHPGSELYMSGFYVDDIPFIRREAEKNGLTFVHHKEKNRWAAVKFTYEGHHHHHH | soluble
MSLKYIIGMDVGTTATKGVLYDINGKAVASVSKGYPLIQTKVGQAEEDPKLIFDAVQEIIFDLTQKIDGKIAAISWSSQMHSLIGLGSDDELLTNSITWADNCAKSIVQDAKNRGFAQQIYRKTGMPMHPMAPIYKLLWLKNKKTEVFSQAQKWIGIKEYIIFRLTGKLVTDTTMAAGTGILNLKTLTWDQELLDILKIKKEQLPKIAQPTKVIFPIKTEYVKKLGIDSDTKIILGASDGYLSTIGVNAIDSDHCALNVGTSGAIRTIVDQPKIDPSASYFCYPADKTHYLLGGPVNNGGIVFNWARQTLFDADETPQDFLDVAQTAPAGSRNLIFLPYLGGERAPIWDANARGSFVGLTRMHQKPEMARAVIEGIIFNLYDAASNLIKNTKKPVAINATGGFLKSDFVRQLCANIFNVPIVTMKEQQSGTLAAMFLARQALGLNQDLSEIGQFAQADKVYFPNPKEAATYQKLFPLYCEIRNALAASYGKFSNINEGHHHHHH | soluble
MSLKYKLLVLDVDGTLLNDAKEISKRTLAALLKVQQMGVRIVLASGRPTYGLMPLAKSLELGNYGGYILSYNGCQIINAQNGEILFERRINPEMLPYLEKKARKNNFALFTYHDDTIITDTPENEHIQNEARLNNLKVIKEEEFSVAIDFAPCKCMLVSDDEEALVSLEGHWKRRLNGALDVFRSEPYFLEVVPCAIDKANTLGALLEELDVKREEVIAIGDGVCDVTMIQLAGLGVAMGHSQDSVKVCADYVTASNEEDGVALAVEKAIIAEVRAAEIPLDQLNAQARHALMGNLGIQYTYADEDRVEATMPVDHRTRQPFGILHGGATLALGETVAGLGSMILCQPDEIVVGMQVSGNHISSAHEGDTVRAVATIVHKGRSSHVWNVDVFTSTNKLVSSIRVVNSVMKKREGHHHHHH | soluble
MSLKYLGLCTDLYELTMAQSYLYEGKTGTAVFSLFVRKLPEKRNFLISAGLETLVERIKNFKFGDEEIKYLKSLGIFKDDFLDYLKDFEFSGNVYAIPEGRIVFQNEPLVQVEAPIPEAQLLETLVINTIQFETMIASKAVRSYLVAKGKKLVDFGFRRAHGLEAGILAARASYIAGFDGTSNVEAGREFGIPVVGTMAHSYVMIFDKEEDAFRAFAKLYPKNAIFLIDTYDTIEAAKKVVDLAKEGVPVVGVRIDSGDIVKLSKEVRKILDENGLKNVRIIVSGGVDEYKIKEWFDRGAPIDAFGVGTKFITSADAPYFDIAYKLVEYEGKPKYKLSPGKKTFPYKRQVYRYYENGKMKYDETAKWESKREGEPLVELVMKNGKLIKELPSLKEIREVVMSELEKLPENYKDITKHYEYEVKILDWEEGHHHHHH | not soluble
MSLLARYLNLIGRRSASPYRPQRLPAKFDNVIVAMSSGVDSSVAAALFAGEFPNTRGVYMQNWSESQSLDDPGKEPCYERDWRDVNRVAKHLNIRVDKVNFEQDYWIDVFEPMLRGYSEGSTPNPDIGCNKFVKFGKLREWLDEKYGTGNYWLVTGHYARVMQEMNGKGLFHLLRSIYRPKDQSYYLSQINSTVLSSLLLPIGHLTKPEVRDLAKYAGLPTAEKPDSQGICFVNNSQHGKFKNFLKHYLPSSPGDIITVDPQSGAKTTWGRHDGLWSYTIGQKVGISMPQADPNYQGTWFVSEKLRDTNEILIVRGRDNPALYSDTMRIENFSSLGPREDTINAFQNTGALTLQFRSLQVPVQIKSCKLNRSADNLDITIHLASKQRAITPGQSCCLYIDDRVLGSGPISHVNNNDTHAEGHHHHHH | not soluble
MSLLAYTYIEHGKFELREKPEPKITDARDAIVRVTLGSICTSDLHIKHGSVPRAVPGITVGHEMVGVVEEVGAEVTSVRPGDRVTVNVETFCGECFFCHHGYVNNCTDPNGGWALGCRIDGGQAEYVRVPYADQGLNRIPDTVSDEQALFVGDVLATGFWATRISEITEKDTILLIGAGPTGICTLLCSMLKNPKRIIVCEKSPERIQFVREHYPDVLITTPENCKEFVLQNSDHSGADVVLEVAGTEDSFRMAWDCARPNAIVTIVALYDKPLLFPLPEMYGKNLTFKTGGVDGCDCAEILSLIEEGKIDTTPLITHRCSLNEIEEAYRIFENKLDGVIKVAIVCQTESEGHHHHHH | soluble
MSLLDFGFDESRIYFTVTDRFFNGDKNNDDPHGNNYDKKNPYTYHGGDLKGLTDKISYLKELGINTIWITPIVENTDFNQMFSQGKTQYSCHGYWAKDFEKLDPHLGTMDDLKTLIDTAHDSGIKIMVDVVLNHAGYGMKNKDNSGANNSPTEEDIAKFKGMFRENPGNDFITQESAGLPDFKTEDPEVREKLIEWQTGWIERSKTEKGNTIDYFRVDTVKHVDNTTWKAFKNKLTEINPSFKTIGEYFGADINNDGGQLQNGQMDALLDFGYKGKARDFVNGNIEGTSAYLDDRASKISNTNLMGQFLSSHDEDGFLKTVGDDLGKQMLAASLQITDKGIPVIYYGEELGMSGWNGFEQGDQNRYDMDFERLNDPKYKKVHDHYEKLLNIRKEYSKIFSKGNRKTIAGNNEEGYSVVLRSYNGKEITPMNLSENNEEKNITNGQNLFVVLNTKNEDKDISFKTNFKEGEKVKDLYSGNEYSIGKDGKVTVKVPSKEGHHHHHH | not soluble
